Substrate: O=C(O)[C@@H]1CCCN1
Assay: enzyme kinetics, Km
Assay type: biochemical, Homo sapiens

B1: human EPRS (bifunctional glutamyl-prolyl-tRNA synthetase) (Homo sapiens) (protein)
chain: MATLSLTVNSGDPPLGALLAVEHVKDDVSISVEEGKENILHVSENVIFTDVNSILRYLARVATTAGLYGSNLMEHTEIDHWLEFSATKLSSCDSFTSTINELNHCLSLRTYLVGNSLSLADLCVWATLKGNAAWQEQLKQKKAPVHVKRWFGFLEAQQAFQSVGTKWDVSTTKARVAPEKKQDVGKFVELPGAEMGKVTVRFPPEASGYLHIGHAKAALLNQHYQVNFKGKLIMRFDDTNPEKEKEDFEKVILEDVAMLHIKPDQFTYTSDHFETIMKYAEKLIQEGKAYVDDTPAEQMKAEREQRIDSKHRKNPIEKNLQMWEEMKKGSQFGQSCCLRAKIDMSSNNGCMRDPTLYRCKIQPHPRTGNKYNVYPTYDFACPIVDSIEGVTHALRTTEYHDRDEQFYWIIEALGIRKPYIWEYSRLNLNNTVLSKRKLTWFVNEGLVDGWDDPRFPTVRGVLRRGMTVEGLKQFIAAQGSSRSVVNMEWDKIWAFNKKVIDPVAPRYVALLKKEVIPVNVPEAQEEMKEVAKHPKNPEVGLKPVWYSPKVFIEGADAETFSEGEMVTFINWGNLNITKIHKNADGKIISLDAKLNLENKDYKKTTKVTWLAETTHALPIPVICVTYEHLITKPVLGKDEDFKQYVNKNSKHEELMLGDPCLKDLKKGDIIQLQRRGFFICDQPYEPVSPYSCKEAPCVLIYIPDGHTKEMPTSGSKEKTKVEATKNETSAPFKERPTPSLNNNCTTSEDSLVLYNRVAVQGDVVRELKAKKAPKEDVDAAVKQLLSLKAEYKEKTGQEYKPGNPPAEIGQNISSNSSASILESKSLYDEVAAQGEVVRKLKAEKSPKAKINEAVECLLSLKAQYKEKTGKEYIPGQPPLSQSSDSSPTRNSEPAGLETPEAKVLFDKVASQGEVVRKLKTEKAPKDQVDIAVQELLQLKAQYKSLIGVEYKPVSATGAEDKDKKKKEKENKSEKQNKPQKQNDGQRKDPSKNQGGGLSSSGAGEGQGPKKQTRLGLEAKKEENLADWYSQVITKSEMIEYHDISGCYILRPWAYAIWEAIKDFFDAEIKKLGVENCYFPMFVSQSALEKEKTHVADFAPEVAWVTRSGKTELAEPIAIRPTSETVMYPAYAKWVQSHRDLPIKLNQWCNVVRWEFKHPQPFLRTREFLWQEGHSAFATMEEAAEEVLQILDLYAQVYEELLAIPVVKGRKTEKEKFAGGDYTTTIEAFISASGRAIQGGTSHHLGQNFSKMFEIVFEDPKIPGEKQFAYQNSWGLTTRTIGVMTMVHGDNMGLVLPPRVACVQVVIIPCGITNALSEEDKEALIAKCNDYRRRLLSVNIRVRADLRDNYSPGWKFNHWELKGVPIRLEVGPRDMKSCQFVAVRRDTGEKLTVAENEAETKLQAILEDIQVTLFTRASEDLKTHMVVANTMEDFQKILDSGKIVQIPFCGEIDCEDWIKKTTARDQDLEPGAPSMGAKSLCIPFKPLCELQPGAKCVCGKNPAKYYTLFGRSY
B1 was tested, and the Km was 135.4 µM.
